In the assay the target is Myeloid-associated differentiation marker (human) (human (endogenous in blood eosinophils of asthmatic volunteers)) (UniProt Q96S97).
Chain of UniProt Q96S97 (Q96S97 whole entry): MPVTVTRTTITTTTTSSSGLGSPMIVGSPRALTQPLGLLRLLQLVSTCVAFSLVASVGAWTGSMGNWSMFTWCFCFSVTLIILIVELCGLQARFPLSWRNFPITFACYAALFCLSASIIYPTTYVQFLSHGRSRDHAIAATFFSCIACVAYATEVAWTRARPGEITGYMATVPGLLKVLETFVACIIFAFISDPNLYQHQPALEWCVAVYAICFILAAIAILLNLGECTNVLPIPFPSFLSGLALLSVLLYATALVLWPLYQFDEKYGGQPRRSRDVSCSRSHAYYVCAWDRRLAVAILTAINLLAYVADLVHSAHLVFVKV

As to “Surfactant protein A (SP-A), preparation genotyped as homozygous for Q (Q/Q) at position 223 of SP-A2 (from UniProt Q8IWL2 21-248; Q8IWL1 21-248) (complex)”, the percent change in apoptotic human eosinophils (Siglec-8+, Annexin V/PI, flow cytometry, 16 h with SP-A) with pre-treatment using anti-MYADM (Invitrogen PA1-41578) compared to SP-A only is 22.5%.

Values taken from article PMC8642528.
